Experimental data reported in the supplement of paper PMC11246515.
± gives the standard deviation of the averaged measurements.

Test: total protein half-life in vivo (active degradation + dilution); higher = more stable protein
[1] = E. coli NCM3722 delta-smpB, growth: N-lim chemostat, doubling time 6 h
[2] = wild type E. coli NCM3722, growth: C-lim chemostat, doubling time 3 h
[3] = wild type E. coli NCM3722, growth: C-lim chemostat, doubling time 6 h
[4] = wild type E. coli NCM3722, growth: N-lim chemostat, doubling time 6 h
[5] = wild type E. coli NCM3722, growth: P-lim chemostat, doubling time 12 h
[6] = E. coli NCM3722 delta-clpP delta-lon delta-hslV, growth: N-lim chemostat, doubling time 6 h
[7] = E. coli NCM3722 delta-clpP, growth: N-lim chemostat, doubling time 6 h
[8] = E. coli NCM3722 delta-hslV, growth: N-lim chemostat, doubling time 6 h
[9] = E. coli NCM3722 delta-lon, growth: N-lim chemostat, doubling time 6 h
[10] = wild type E. coli NCM3722, growth: C-lim chemostat, doubling time 12 h
[11] = wild type E. coli NCM3722, growth: N-lim chemostat, doubling time 12 h
[12] = wild type E. coli NCM3722, growth: P-lim chemostat, doubling time 6 h

| Sequence | total protein half-life in vivo [1] [h] | total protein half-life in vivo [2] [h] | total protein half-life in vivo [3] [h] | total protein half-life in vivo [4] [h] | total protein half-life in vivo [5] [h] | total protein half-life in vivo [6] [h] | total protein half-life in vivo [7] [h] | total protein half-life in vivo [8] [h] | total protein half-life in vivo [9] [h] | total protein half-life in vivo [10] [h] | total protein half-life in vivo [11] [h] | total protein half-life in vivo [12] [h] |
| --- | --- | --- | --- | --- | --- | --- | --- | --- | --- | --- | --- | --- |
| MATPYISMAGIGKSFGPVHALKSVNLTVYPGEIHALLGENGAGKSTLMKVLSGIHEPTKGTITINNISYNKLDHKLAAQLGIGIIYQELSVIDELTVLENLYIGRHLTKKICGVNIIDWREMRVRAAMMLLRVGLKVDLDEKVANLSISHKQMLEIAKTLMLDAKVIIMDEPTSSLTNKEVDYLFLIMNQLRKEGTAIVYISHKLAEIRRICDRYTVMKDGSSVCSGIVSDVSNDDIVRLMVGRELQNRFNAMKENVSNLAHETVFEVRNVTSRDRKKVRDISFSVCRGEILGFAGLVGSGRTELMNCLFGVDKRAGGEIRLNGKDISPRSPLDAVKKGMAYITESRRDNGFFPNFSIAQNMAISRSLKDGGYKGAMGLFHEVDEQRTAENQRELLALKCHSVNQNITELSGGNQQKVLISKWLCCCPEVIIFDEPTRGIDVGAKAEIYKVMRQLADDGKVILMVSSELPEIITVCDRIAVFCEGRLTQILTNRDDMSEEEIMAWALPQE | > 8 | 2.84 ± 0.095 | 5.265 ± 0.0056 | 6.14 | 10.6 |  |  |  |  |  |  |  |
| MATTHLDVCAVVPAAGFGRRMQTECPKQYLSIGNQTILEHSVHALLAHPRVKRVVIAISPGDSRFAQLPLANHPQITVVDGGDERADSVLAGLKAAGDAQWVLVHDAARPCLHQDDLARLLALSETSRTGGILAAPVRDTMKRAEPGKNAIAHTVDRNGLWHALTPQFFPRELLHDCLTRALNEGATITDEASALEYCGFHPQLVEGRADNIKVTRPEDLALAEFYLTRTIHQENT | 4.66 ± 0.47 | 3.29 ± 0.43 | 6.7 ± 1.2 | 5.66 ± 1.1 | 11.96 ± 0.058 | 4.65 ± 0.39 | 5.096 ± 0.047 | 5.2 ± 1.2 | 4.6 ± 2.6 | 10.6 ± 1.2 | 8.34 ± 2 |  |
| MATTQQSGFAPAASPLASTIVQTPDDAIVAGFTSIPSQGDNMPAYHARPKQSDGPLPVVIVVQEIFGVHEHIRDICRRLALEGYLAIAPELYFREGDPNDFADIPTLLSGLVAKVPDSQVLADLDHVASWASRNGGDVHRLMITGFCWGGRITWLYAAHNPQLKAAVAWYGKLTGDKSLNSPKQPVDIATDLNAPILGLYGGQDNSIPQESVETMRQALRAANAKAEIIVYPDAGHAFNADYRPSYHAASAEDGWQRMLEWFKQYGGKKSL | 3.92 ± 0.051 | 2.59 ± 0.14 | 4.52 ± 0.53 | 3.85 ± 0.1 | 8.35 ± 0.2 | 4.8 ± 0.66 | 3.82 ± 0.21 | 4.01 ± 0.11 | 4.18 ± 0.37 | 8.52 ± 2.4 | 5.35 ± 1.5 | 4.06 ± 0.17 |
| MATTTAECLTQETMDYHALNAMLNLYDSAGRIQFDKDRQAVDAFIATHVRPNSVTFSSQQQRLNWLVNEGYYDESVLNRYSRDFVITLFTHAHTSGFRFQTFLGAWKFYTSYTLKTFDGKRYLEDFADRVTMVALTLAQGDETLALQLTDEMLSGRFQPATPTFLNCGKQQRGELVSCFLLRIEDNMESIGRAVNSALQLSKRGGGVAFLLSNLREAGAPIKRIENQSSGVIPVMKMLEDAFSYANQLGARQGAGAVYLHAHHPDILRFLDTKRENADEKIRIKTLSLGVVIPDITFHLAKENAQMALFSPYDVERVYGKPFADVAISQHYDELVADERIRKKYLNARDFFQRLAEIQFESGYPYIMYEDTVNRANPIAGRINMSNLCSEILQVNSASEYDENLDYTRTGHDISCNLGSLNIAHTMDSPDFARTVETAVRGLTAVSDMSHIRSVPSIEAGNAASHAIGLGQMNLHGYLAREGIAYGSPEALDFTNLYFYAITWHALRTSMLLARERGETFAGFKQSRYASGEYFSQYLQGNWQPKTAKVGELFTRSGITLPTREMWAQLRDDVMRYGIYNQNLQAVPPTGSISYINHATSSIHPIVAKVEIRKEGKTGRVYYPAPFMTNENLALYQDAYEIGAEKIIDTYAEATRHVDQGLSLTLFFPDTATTRDINKAQIYAWRKGIKTLYYIRLRQMALEGTEIEGCVSCAL |  |  | 2.61 ± 0.17 |  |  | 4.76 ± 0.29 | 4.61 ± 2.7 |  |  | 2.88 ± 1.4 |  |  |
| MAVIQDIIAALWQHDFAALADPHIVSVVYFVMFATLFLENGLLPASFLPGDSLLILAGALIAQGVMDFLPTIAILTAAASLGCWLSYIQGRWLGNTKTVKGWLAQLPAKYHQRATCMFDRHGLLALLAGRFLAFVRTLLPTMAGISGLPNRRFQFFNWLSGLLWVSVVTSFGYALSMIPFVKRHEDQVMTFLMILPIALLTAGLLGTLFVVIKKKYCNA [P0AA60] |  | 2.23 | 4.04 ± 1.4 |  | 8.67 | 4.46 | 4.55 | 3.26 |  | 7.25 |  | > 8 |
| MAVQKNVIKGILAGTFALMLSGCVTVPDAIKGSSPTPQQDLVRVMSAPQLYVGQEARFGGKVVAVQNQQGKTRLEIATVPLDSGARPTLGEPSRGRIYADVNGFLDPVDFRGQLVTVVGPITGAVDGKIGNTPYKFMVMQVTGYKRWHLTQQVIMPPQPIDPWFYGGRGWPYGYGGWGWYNPGPARVQTVVTE [P0AA91] | 5.76 ± 0.071 | 3.01 ± 0.17 | 6.05 ± 0.21 | 6.52 ± 0.45 |  | 6.07 ± 0.61 | 6.3 ± 0.12 | 6.13 ± 0.12 | 6.532 ± 0.04 | 10.7 ± 2.4 | 13.7 ± 1.7 | 6.13 ± 0.1 |
| MAYFLDFDERALKEWRKLGSTVREQLKKKLVEVLESPRIEANKLRGMPDCYKIKLRSSGYRLVYQVIDEKVVVFVISVGKRERSEVYSEAVKRIL [P0C077] | 2.83 ± 0.12 | 3 ± 0.35 | 4.25 ± 0.73 | 2.58 ± 0.06 | 11.3 ± 0.5 | 4.02 ± 0.45 | 3.59 ± 0.8 | 2.54 ± 0.14 | 3.36 ± 0.24 | 6.2 ± 0.85 | 3.73 ± 0.099 | 3.75 ± 0.74 |
| MAYSKIRQPKLSDVIEQQLEFLILEGTLRPGEKLPPERELAKQFDVSRPSLREAIQRLEAKGLLLRRQGGGTFVQSSLWQSFSDPLVELLSDHPESQYDLLETRHALEGIAAYYAALRSTDEDKERIRELHHAIELAQQSGDLDAESNAVLQYQIAVTEAAHNVVLLHLLRCMEPMLAQNVRQNFELLYSRREMLPLVSSHRTRIFEAIMAGKPEEAREASHRHLAFIEEILLDRSREESRRERSLRRLEQRKN [P0ACL9] | 4.54 ± 0.35 | 2.94 ± 0.1 | 6.361 ± 0.042 | 4.53 ± 0.67 | 11.2 ± 1.1 | 5.54 ± 0.1 | 5.3 ± 0.09 | 4.94 ± 0.19 | 4.33 | 9.49 ± 0.8 | 9.28 | 5.59 ± 0.71 |
| MCEHHHAAKHILCSQCDMLVALPRLEHGQKAACPRCGTTLTVAWDAPRQRPTAYALAALFMLLLSNLFPFVNMNVAGVTSEITLLEIPGVLFSEDYASLGTFFLLFVQLVPAFCLITILLLVNRAELPVRLKEQLARVLFQLKTWGMAEIFLAGVLVSFVKLMAYGSIGVGSSFLPWCLFCVLQLRAFQCVDRRWLWDDIAPMPELRQPLKPGVTGIRQGLRSCSCCTAILPADEPVCPRCSTKGYVRRRNSLQWTLALLVTSIMLYLPANILPIMVTDLLGSKMPSTILAGVILLWSEGSYPVAAVIFLASIMVPTLKMIAIAWLCWDAKGHGKRDSERMHLIYEVVEFVGRWSMIDVFVIAVLSALVRMGGLMSIYPAMGALMFALVVIMTMFSAMTFDPRLSWDRQPESEHEES [P0AFL9] |  |  |  |  |  |  |  |  |  |  | 11 |  |
